The values below come from US20190218308A1 (INNATE PHARMA, published 2019).

Substitutions are numbered along the chain they refer to.

Test [1] addresses T1, CD39-M2 extracellular domain recombinant protein (soluble human CD39) (human, UniProt P49961 38-478).
T1 sequence: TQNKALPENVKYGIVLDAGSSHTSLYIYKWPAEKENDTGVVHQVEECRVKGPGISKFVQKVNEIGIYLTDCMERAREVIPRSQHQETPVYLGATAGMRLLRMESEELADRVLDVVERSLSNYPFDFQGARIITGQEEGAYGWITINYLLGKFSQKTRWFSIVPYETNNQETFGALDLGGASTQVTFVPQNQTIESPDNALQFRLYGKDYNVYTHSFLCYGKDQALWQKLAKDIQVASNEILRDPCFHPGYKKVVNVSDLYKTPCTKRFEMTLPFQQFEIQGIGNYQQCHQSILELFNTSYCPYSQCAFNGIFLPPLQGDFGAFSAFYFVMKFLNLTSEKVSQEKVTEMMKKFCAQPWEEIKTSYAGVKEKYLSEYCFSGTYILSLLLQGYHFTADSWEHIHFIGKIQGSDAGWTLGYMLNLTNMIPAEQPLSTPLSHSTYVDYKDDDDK
The test can be described thus: cell-based or functional assay.

Test [2] concerns the target T2, human CD39 (NTPDase1, ENTPD1), membrane-bound, on cells (human, UniProt P49961 1-510).
T2 sequence: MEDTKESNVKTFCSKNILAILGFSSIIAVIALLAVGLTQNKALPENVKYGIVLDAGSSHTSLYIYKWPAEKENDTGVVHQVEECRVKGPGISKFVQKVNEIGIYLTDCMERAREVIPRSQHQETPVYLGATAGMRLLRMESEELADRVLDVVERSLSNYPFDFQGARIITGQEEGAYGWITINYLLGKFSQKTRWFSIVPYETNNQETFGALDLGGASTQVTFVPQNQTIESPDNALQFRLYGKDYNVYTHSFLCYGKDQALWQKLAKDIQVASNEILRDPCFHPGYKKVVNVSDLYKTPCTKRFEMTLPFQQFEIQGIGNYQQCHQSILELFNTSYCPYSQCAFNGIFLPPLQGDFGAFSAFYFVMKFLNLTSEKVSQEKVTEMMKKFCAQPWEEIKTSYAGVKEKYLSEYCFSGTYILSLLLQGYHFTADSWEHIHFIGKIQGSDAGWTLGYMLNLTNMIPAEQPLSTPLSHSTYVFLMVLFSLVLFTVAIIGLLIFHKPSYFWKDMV
The experiment in a line: cell-based or functional assay.

The target of a further test is T3, CD39 mutant 15 (human, UniProt P49961 1-510).
T3 construct: Expressed on Hek-293T cells; also called M15
T3 chain: T2 sequence with K87A, E100A, D107A
The test can be described thus: flow cytometry, Hek-293T cells transfected with CD39 mutant 15 (panel M15), table under the panel; unstained (US) 8,98; antibody concentration not shown. As to the method:
Mutants were transfected in Hek-293T cells, as shown in the table 1, using numbering of SEQ ID NO: 2. […] Mutant 19 includes substitutions at residues R138, M139 and E142.
Mutants were transfected in Hek-293T cells, as shown in the table 1, using numbering of SEQ ID NO: 2. Dose-ranges of test antibodies (10-2.5-0.625-0.1563-0.0391-0.0098-0.0024-0.0006 μg/ml) are tested on the 20 generated mutants by flow cytometry.
Background: In flow cytometry, cells or beads pass a laser one at a time.

Test [3] deals with T4, Human CD39-L4, also known as NTPDase5 or ENTPD5 (human, UniProt O75356 25-428).
T4 construct: Recombinant protein coated in ELISA
T4 sequence: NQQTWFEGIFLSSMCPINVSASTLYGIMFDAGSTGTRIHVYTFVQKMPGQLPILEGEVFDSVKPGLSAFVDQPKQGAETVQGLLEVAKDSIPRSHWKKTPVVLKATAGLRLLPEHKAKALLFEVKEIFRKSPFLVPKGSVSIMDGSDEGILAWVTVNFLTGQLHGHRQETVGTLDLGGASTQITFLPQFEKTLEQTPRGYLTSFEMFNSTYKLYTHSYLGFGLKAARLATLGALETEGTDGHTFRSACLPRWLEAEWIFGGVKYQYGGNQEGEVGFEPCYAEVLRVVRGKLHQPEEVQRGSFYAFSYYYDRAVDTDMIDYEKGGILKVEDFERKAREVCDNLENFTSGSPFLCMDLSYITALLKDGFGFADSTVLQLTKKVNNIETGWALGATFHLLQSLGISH
The experiment in a line: ELISA on coated recombinant human CD39-L4 (panel huCD39 L4). As to the method: Wells were washed in TBS Tween 20, and further saturated 2H at RT in TBS Blocking buffer. Dose range concentration of primary antibody was incubated in TBS blocking buffer for 2 h at RT. Wells were washed in TBS Tween 20. […] Optical density was measured on Enspire™ at OD=450.
A general note: ELISA stands for enzyme-linked immunosorbent assay.

B1: antibody I-394 (antibody, human IgG1, kappa, V domains shown)
VH: EVQLQQSGPELVKPGASVKMSCKASGYTFTDYNMHWVKQSHGRTLEWIGYIVPLNGGSTFNQKFKGRATLTVNTSSRTAYMELRSLTSEDSAAYYCARGGTRFAYWGQGTLVTVSA
VL: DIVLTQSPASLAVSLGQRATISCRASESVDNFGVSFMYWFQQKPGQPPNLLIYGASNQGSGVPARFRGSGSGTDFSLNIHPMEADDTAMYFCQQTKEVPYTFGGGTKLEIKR
Regarding B1, the “IC50, inhibition of the ATPase activity of soluble CD39 protein” value in test [1] came to 0.003 µg/mL. Moreover, in test [2], the “IC50 (inhibition of 50% of the enzymatic activity of CD39 expressed by 50,000 Ramos cells)” value worked out at 0.05 µg/mL. For the same molecule, in the test with CD39 mutant 15, the “Median : Comp-Alexa Fluor 647-A” value worked out at 6360. The binding result in test [3] is “no binding (tested: about 50 µg/ml)”.
